Entries after “also recorded” stand apart in the source; their conditions may differ.
How the values were obtained:
[1] = target: T1, recombinant human IL18-BP (Homo sapiens, UniProt O95998); assay: CMV recall assay; type: cell-based
T1 construct: purchased R&D systems 119-BP
T1 sequence (O95998 31-194): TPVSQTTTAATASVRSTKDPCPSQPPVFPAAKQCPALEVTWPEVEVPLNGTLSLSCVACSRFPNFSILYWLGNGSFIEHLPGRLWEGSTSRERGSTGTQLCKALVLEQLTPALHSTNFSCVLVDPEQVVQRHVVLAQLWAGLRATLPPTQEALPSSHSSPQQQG
Description: Human MEL-624 overexpressing PD-L1 cells were thawed and loaded with CMV pp65 peptide (0.03 μg/ml). The cells were seeded at 100K/well in a 96 well plate and incubated for 30 minutes in 37° C., 5% C02 incubator with a combination rhIL-18 (30 ng/ml, R&D systems, 9124-IL/CF) and rhIL-18BP-Fc chimeric protein (2 μg/ml, R&D systems 119-BP) to allow IL-18+IL-18BP complex formation. After 30 minutes, anti-human IL-18BP (ADI-71722), anti-human PVRIG, anti-human TIGIT (anti-TIGIT), anti-human PD1 (Pembrolizumab) or relevant isotype control (hIgG4) were added to the culture to examine their capability to restore IL-18 activity. All antibodies were added to a final concentration of 10 μg/ml. 30 minutes post incubation with antibodies, thawed CMV-reactive T-cells were added to the culture. Cells and all added solutions were prepared in full IMDM (IMDM media with 10% human serum, 1% Glutamax, 1% MEM eagle, 1% sodium pyruvate, and 1% Penicillin-Streptomycin Solution) to a final volume of 200 μl/well. Plates were incubated for 24 hours in 37° C., 5% C02 incubator, after which the supernatant was collected for IFNγ secretion evaluation. All tests were done in triplicates and each repeated with three donors.
MEL624 cells that overexpress PD-L1 were loaded with CMV peptide pp65. […] CMV-specific T-cells were then added to the culture and IFNg secretion was measured after an overnight incubation.

[2] = test system: human TDCs with endogenous IL18 and IL18BP; assay: Ex vivo culture of human tumor dissociated cells (TDCs); type: cell-based
Description: Resected tumor specimens were cut into 1 mm pieces using scalpel and transferred into enzymatic digestion mix (Tumor Dissociation kit, Miltenyi, 130-095-929). Dissociation was done according to the manufacturer's instructions using gentle MACS Dissociator (Miltenyi Biotec). Dissociation time lasted 1 h under mechanical rotation and heating. Samples were centrifuged for 3 min at 300 g, pellet was resuspended in RPMI, passed through a MACS SmartStrainer (70 μm), and centrifuged for 7 min at 300 g. Cells were resuspended with RBC for 3 min, washed with RPMI 1640, transferred through 40 μm filter and centrifuged for 7 min at 300 g. Finally, cells were resuspended in PBS, stained with Trypan blue and counted. Samples were then stained for flow cytometric analyses or resuspended in fetal bovine serum containing 10% of dimethyl sulfoxide for storage in liquid nitrogen.
Human TDC samples were seeded at 0.1×10^6 of CD45+ cells per well in 96-well plate, pre-coated with anti-CD3 and anti-CD28 antibodies (10 μg/ml both). Complete medium, [RPMI 1640 (BI, Cat. #01-110-1A) supplemented with 10% human AB serum (Sigma, Cat. #H3667), 1% Penicillin/Streptomycin (BI, Cat. #03-031-1B), 1% 1-glutamine (Life Technologies, Cat. #35050-038) and 1% of sodium pyruvate (BI, Cat. #03-042-1B)] was used. […]

B1: ADI-71739: anti-IL18-BP antibody, sequences in FIG. 2K; 66716 lineage (antibody, V domains shown)
VH: QLQLQESGPGLVKPSETLSLTCTVSGGSISSPDYPWGWIRQPPGKGLEWIGSIYYQGATYYNPSLKSRVTISVDTSKNQFSLKLSSVTAADTAVYYCARGPYRQLFDYWGQGTLVTVSS
VL: DIQMTQSPSSVSASVGDRVTITCRASQGISSWLAWYQQKPGKAPKLLIYAASSLQSGVPSRFSGSGSGTDFTLTISSLQPEDFATYYCQQGSVFPYTFGGGTKVEIK
- IFNγ secretion by CMV-reactive T-cells, as mono ([1]; 10 μg/ml, rhIL-18 30 ng/ml + rhIL-18BP 2 μg/ml): increase IFNγ secretion from CMV-reactive T-cells; also recorded: increase IFNγ secretion by the T cells
- IFNγ secretion by CMV-reactive T-cells, in combination ([1]; combined with Pembrolizumab, anti-PVRIG or anti-TIGIT, each 10 μg/ml, vs mono): in a more potent manner; also recorded: augmented
- Cytokine and Granzyme B secretion by TDCs, vs media ([2]; 10 μg/ml, anti-CD3/anti-CD28 stimulation, human ovarian TDC sample): enhanced TNFa, IFNg, IL2 and Granzyme B secretion
- Cytokine and Granzyme B secretion by TDCs, combination with pembrolizumab vs Pembro alone ([2]; each 10 μg/ml): further increased TNFa, IFNg, and Granzyme B secretion

From patent US20240425607A1, “IL-18BP ANTAGONIST ANTIBODIES AND THEIR USE IN MONOTHERAPY AND COMBINATION THERAPY IN THE TREATMENT OF CANCER” (Compugen Ltd., priority 2023, published 2024)
